Values of other authors in US20090011987A1, “Use of Glp-2 for the Treatment of Ischemia-Reperfusion Injury” (Novo Nordisk A/S, priority 2005, published 2009).

Conditions: adult human plasma

Substance: GLP-2(1-33) [wild type human GLP-2(1-33)]
- half-life: lower than 2 hours
